Consider 2 substances from PMC9541865, “Clinical Pharmacology of Insulin Aspart Biosimilar GP40071: Pharmacokinetic/Pharmacodynamic Comparability in Hyperinsulinemic Euglycemic Clamp Procedure” (Clinical Pharmacology in Drug Development, 2022).

Read-outs that look alike come from different tables or passages of the source.

Data set [1] relates to healthy male volunteers. In words: Pharmacodynamics (glucose infusion rate) in hyperinsulinemic euglycemic clamp (HEC). The format is in vivo, human. The conditions noted are these: N = 26, single s.c. 0.3 IU/kg, arithmetic mean (SD); for AUCGIR0‐t / GIRmax: 8-h HEC. The method, then: The PD effect of insulin aspart was evaluated using the manual euglycemic clamp technique, as described previously[7] with adaptations described below.
Before the clamp procedure. Subjects were hospitalized approximately 12 hours before each drug administration. After the baseline physical examination, vital signs measurements, alcohol breath test, and urine drug testing were performed to confirm compliance with the study restrictions. All participants were given a standardized light meal in the evening before the clamp. Subjects fasted for at least 10 hours before the dosing and remained fasted until the end of the clamp.
During the clamp procedure. The next morning HEC was performed.
Pharmacodynamics. As described above, blood glucose values determined every 5 minutes during HEC were used to measure and manually adjust GIR.

Data set [2] has as its system healthy male volunteers. In words: Safety and tolerability (adverse events) in HEC study. The format is in vivo, human. The note with it: single s.c. 0.3 IU/kg, N = 26; for Number of adverse events (AEs): all transitory and mild, most probably related to the HEC procedure; for Tolerability of single dose: healthy male volunteers. The method, then:
Safety evaluation. The safety and tolerability of both studied drugs were also assessed. Throughout the trial, adverse events (AEs) were monitored and all participants underwent physical examination, vital signs assessment, electrocardiogram (ECG) recording, and laboratory blood and urine testing.

The conditions of data set [3]: human, in vivo, sc.
Protocol: (§1) This was a phase 1, randomized, double‐blind, two‐center, two‐treatment, single‐dose, two‐period, crossover, 8‐hour HEC study in healthy subjects. The study was conducted simultaneously in 2018 at two clinical sites (Almazov National Medical Research Center, Saint Petersburg, Russia, and Endocrinology Research Centre, Moscow).
(§2) NovoRapid® Penfill® (Novo‐Asp), as a solution for injection (100 IU/mL), by NovoNordisk, Denmark was used as a reference drug. Both drugs were administered subcutaneously into the abdomen using a BD Micro‐Fine 0.5‐mL insulin syringe with an 8‐mm needle. In this study, the dose of insulin aspart was 0.3 IU/kg for each formulation.
(§3) The next morning HEC was performed. Subjects remained in a supine position for the entire procedure. The time of dosing of the investigated insulins was defined as a zero point. Plasma glucose levels were measured to confirm euglycemia state 60 and 30 minutes prior to the dosing. The target value for blood glucose concentrations during the clamp procedure was defined as 90 mg/100 mL and the acceptable glycemic range in this study was set as 80–100 mg/100 mL. After subcutaneous injection of the investigated insulin, intravenous 20% glucose infusion was started once the baseline plasma glucose level decreased by more than 5 mg/100 mL. The glucose infusion rate (GIR) was controlled and adjusted manually using an infusion pump (Infusomat fmS, B. Braun Melsungen AG, Germany) to maintain plasma glucose concentrations of 80–100 mg/100 mL. HEC lasted 8 hours, and during the entire procedure glycemia was measured using a glucose analyzer (StatStrip, Nova Biomedical, USA) and GIR was adjusted accordingly every 5 minutes. The GIR was documented throughout the procedure and was used to reflect the activity of insulin. Glucose infusion could be discontinued earlier if GIR equaled 0 mg/kg/min at three consecutive measurements 6 hours or more after dosing. Blood samples for PK assessment were obtained for 8 hours postdose.
(§4) Pharmacokinetics. During each HEC 21 samples (each 9 mL of venous blood) were collected from all participants at regular time intervals to assess the concentrations of insulin aspart and C‐peptide: 60, 30, 0 minutes predose and 10, 20, 30, 40, 50, 60, 75, 90, 105, 120, 135, 150, 165, 240, 300, 360, 420, 480 minutes postdose. To obtain plasma samples for the bioanalytical part the blood samples were centrifuged at 3000 rpm for 15 minutes, then the supernatant was transferred into clean tubes. Insulin determination in plasma was performed by a validated enzyme immunoassay (EIA) method using a Personal Lab (Adaltis S.r.l., Italy) analyzer. A Mercodia Iso‐Insulin ELISA kit (Mercodia, Sweden) was used to measure total endogenous human insulin and insulin aspart concentrations and then a Mercodia Insulin ELISA kit (Mercodia) was used to quantify specifically the endogenous human insulin concentration. […] The validated lower (LLOQ) and upper (ULOQ) levels of quantification for total insulin assay were 10.00 and 300.00 μIU/mL, and for human insulin assay they were 10.00 and 150.00 μIU/mL.
The nature of data set [4]: Pharmacokinetics of insulin aspart in plasma during hyperinsulinemic euglycemic clamp (HEC). The note with it: healthy male volunteers, N = 26, arithmetic mean (SD); for AUCins.0‐t: single s.c. 0.3 IU/kg into abdomen, ELISA double measurement; for AUCins.0‐t / Cins.max: 8-h HEC, plasma; for Cins.max: ELISA; for AUCins.0‐∞: extrapolated to infinity.
Protocol: as §1, §2, §3, §4

Take insulin aspart [GP‐Asp]: in data set [1], the “AUCGIR0‐t” value was 43.48 (12.43) mg/kg × 60 min, the GIRmax is 11.21 (3.43) mg/kg/min, the “tGIRlag (onset of action)” value is 0.48 (0.21) and the “tGIRmax (time to reach GIRmax)” value is 2.75 (0.94). In data set [2], the Cases of hyperbilirubinemia entry is on record as “One”, the Cases of phlebitis entry is “one”, the “Number of adverse events (AEs)” value is “two” and the “Tolerability of single dose” value is on record as “well tolerated”. Further, the t1/2 in data set [3] was 0.88 (0.31) h. For the same substance, the “AUCins.0‐t” value in data set [4] is 750.86 (163.48) μLU/mL × h. Moreover, in data set [4] (single s.c. 0.3 IU/kg), the Cins.max is listed as 286.95 (86.53) μLU/ml/mL, the tmax was 1.51 (0.53) h and the “AUCins.0‐∞” value is 776.90 (166.33) μLU/ml/mL × h.
As for insulin aspart [Novo‐Asp], in data set [1], the “AUCGIR0‐t” value was 42.81 (13.28) mg/kg × 60 min, the GIRmax is 10.65 (3.3) mg/kg/min, the “tGIRlag (onset of action)” value is on record as 0.44 (0.18) and the “tGIRmax (time to reach GIRmax)” value is reported as 2.82 (1.02). In data set [2], the Cases of hyperbilirubinemia entry was “One”, the Cases of phlebitis result is recorded as “one”, the “Number of adverse events (AEs)” value is listed as “two” and the “Tolerability of single dose” value is reported as “well tolerated”. The “AUCins.0‐t” value in data set [4] is 716.37 (199.60) μLU/mL × h. Moreover, in data set [4] (single s.c. 0.3 IU/kg), the Cins.max is 245.58 (72.70) μLU/ml/mL, the t1/2 is 0.93 (0.36) h, the tmax is 1.37 (0.49) h and the “AUCins.0‐∞” value was 745.70 (209.72) μLU/ml/mL × h.
